Measured values from patent US12099068B2, “Biomarkers for graft-versus-host disease” (Incyte Corporation, priority 2018, dated 2024).

B1: PVALB (protein, UniProt P20472 2-110, looked up)
Parvalbumin alpha: SMTDLLNAEDIKKAVGAFSATDSFDHKKFFQMVGLKKKSADDVKKVFHMLDKDKSGFIEEDELGFILKGFSPDARDLSAKETKMLMAAGDKDGDGKIGVDEFSTLVAES
B2: GLO1 (protein, UniProt Q04760 2-184, looked up)
Lactoylglutathione lyase: AEPQPPSGGLTDEAALSCCSDADPSTKDFLLQQTMLRVKDPKKSLDFYTRVLGMTLIQKCDFPIMKFSLYFLAYEDKNDIPKEKDEKIAWALSRKATLELTHNWGTEDDETQSYHNGNSDPRGFGHIGIAVPDVYSACKRFEELGVKFVKKPDDGKMKGLAFIQDPDGYWIEILNPNKMATLM
B3: RTN4R (protein, UniProt Q9BZR6 27-447, looked up)
Reticulon-4 receptor: CPGACVCYNEPKVTTSCPQQGLQAVPVGIPAASQRIFLHGNRISHVPAASFRACRNLTILWLHSNVLARIDAAAFTGLALLEQLDLSDNAQLRSVDPATFHGLGRLHTLHLDRCGLQELGPGLFRGLAALQYLYLQDNALQALPDDTFRDLGNLTHLFLHGNRISSVPERAFRGLHSLDRLLLHQNRVAHVHPHAFRDLGRLMTLYLFANNLSALPTEALAPLRALQYLRLNDNPWVCDCRARPLWAWLQKFRGSSSEVPCSLPQRLAGRDLKRLAANDLQGCAVATGPYHPIWTGRATDEEPLGLPKCCQPDAADKASVLEPGRPASAGNALKGRVPPGDSPPGNGSGPRHINDSPFGTLPGSAEPPLTAVRPEGSEPPGFPTSGPRRRPGCSRKNRTRSHCRLGQAGSGGGGTGDSEGS
B4: IgG Fc receptor II-b (protein, UniProt P31994 43-310, looked up)
Low affinity immunoglobulin …: TPAAPPKAVLKLEPQWINVLQEDSVTLTCRGTHSPESDSIQWFHNGNLIPTHTQPSYRFKANNNDSGEYTCQTGQTSLSDPVHLTVLSEWLVLQTPHLEFQEGETIVLRCHSWKDKPLVKVTFFQNGKSKKFSRSDPNFSIPQANHSHSGDYHCTGNIGYTLYSSKPVTITVQAPSSSPMGIIVAVVTGIAVAAIVAAVVALIYCRKKRISALPGYPECREMGETLPEKPANPTNPDEADKVGAENTITYSLLMHPDALEEPDDQNRI
B5: SCGB3A2 (protein, UniProt Q96PL1 22-93, looked up)
Secretoglobin family 3A …: FLINKVPLPVDKLAPLPLDNILPFMDPLKLLLKTLGISVEHLVEGLRKCVNELGPEASEAVKKLLEALSHLV
B6: LAIR1 (protein, UniProt Q6GTX8 22-287, looked up)
Leukocyte-associated …: QEEDLPRPSISAEPGTVIPLGSHVTFVCRGPVGVQTFRLERDSRSTYNDTEDVSQASPSESEARFRIDSVREGNAGLYRCIYYKPPKWSEQSDYLELLVKESSGGPDSPDTEPGSSAGPTQRPSDNSHNEHAPASQGLKAEHLYILIGVSVVFLFCLLLLVLFCLHRQNQIKQGPPRSKDEEQKPQQRPDLAVDVLERTADKATVNGLPEKDRETDTSALAAGSSQEVTYAQLDHWALTQRTARAVSPQSTKPMAESITYAAVARH
B7: SCARF2 (protein, UniProt Q96GP6 44-871, looked up)
Scavenger receptor class F …: QELNPRGRNVCRAPGSQVPTCCAGWRQQGDECGIAVCEGNSTCSENEVCVRPGECRCRHGYFGANCDTKCPRQFWGPDCKELCSCHPHGQCEDVTGQCTCHARRWGARCEHACQCQHGTCHPRSGACRCEPGWWGAQCASACYCSATSRCDPQTGACLCHAGWWGRSCNNQCACNSSPCEQQSGRCQCRERTFGARCDRYCQCFRGRCHPVDGTCACEPGYRGKYCREPCPAGFYGLGCRRRCGQCKGQQPCTVAEGRCLTCEPGWNGTKCDQPCATGFYGEGCSHRCPPCRDGHACNHVTGKCTRCNAGWIGDRCETKCSNGTYGEDCAFVCADCGSGHCDFQSGRCLCSPGVHGPHCNVTCPPGLHGADCAQACSCHEDTCDPVTGACHLETNQRKGVMGAGALLVLLVCLLLSLLGCCCACRGKDPTRRPRPRRELSLGRKKAPHRLCGRFSRISMKLPRIPLRRQKLPKVVVAHHDLDNTLNCSFLEPPSGLEQPSPSWSSRASFSSFDTTDEGPVYCVPHEEAPAESRDPEVPTVPAEAPAPSPVPLTTPASAEEAIPLPASSDSERSASSVEGPGGALYARVARREARPARARGEIGGLSLSPSPERRKPPPPDPATKPKVSWIHGKHSAAAAGRAPSPPPPGSEAAPSPSKRKRTPSDKSAHTVEHGSPRTRDPTPRPPGLPEEATALAAPSPPRARARGRGPGLLEPTDAGGPPRSAPEAASMLAAELRGKTRSLGRAEVALGAQGPREKPAPPQKAKRSVPPASPARAPPATETPGPEKAATDLPAPETPRKKTPIQKPPRKKSREAAGELGRAGAPTL
B8: RGMB (protein, UniProt Q6NW40 46-413, looked up)
Repulsive guidance molecule B: GDCQQPAQCRIQKCTTDFVSLTSHLNSAVDGFDSEFCKALRAYAGCTQRTSKACRGNLVYHSAVLGISDLMSQRNCSKDGPTSSTNPEVTHDPCNYHSHAGAREHRRGDQNPPSYLFCGLFGDPHLRTFKDNFQTCKVEGAWPLIDNNYLSVQVTNVPVVPGSSATATNKITIIFKAHHECTDQKVYQAVTDDLPAAFVDGTTSGGDSDAKSLRIVERESGHYVEMHARYIGTTVFVRQVGRYLTLAIRMPEDLAMSYEESQDLQLCVNGCPLSERIDDGQGQVSAILGHSLPRTSLVQAWPGYTLETANTQCHEKMPVKDIYFQSCVFDLLTTGDANFTAAAHSALEDVEALHPRKERWHIFPSSGN
B9: RASSF2 (protein, UniProt P50749 1-326, looked up)
Ras association …: MDYSHQTSLVPCGQDKYISKNELLLHLKTYNLYYEGQNLQLRHREEEDEFIVEGLLNISWGLRRPIRLQMQDDNERIRPPPSSSSWHSGCNLGAQGTTLKPLTVPKVQISEVDAPPEGDQMPSSTDSRGLKPLQEDTPQLMRTRSDVGVRRRGNVRTPSDQRRIRRHRFSINGHFYNHKTSVFTPAYGSVTNVRINSTMTTPQVLKLLLNKFKIENSAEEFALYVVHTSGEKQKLKATDYPLIARILQGPCEQISKVFLMEKDQVEEVTYDVAQYIKFEMPVLKSFIQKLQEEEDREVKKLMRKYTVLRLMIRQRLEEIAETPATI
B10: ITGB6 (protein, UniProt P18564 22-788, looked up)
Integrin beta-6: GCALGGAETCEDCLLIGPQCAWCAQENFTHPSGVGERCDTPANLLAKGCQLNFIENPVSQVEILKNKPLSVGRQKNSSDIVQIAPQSLILKLRPGGAQTLQVHVRQTEDYPVDLYYLMDLSASMDDDLNTIKELGSRLSKEMSKLTSNFRLGFGSFVEKPVSPFVKTTPEEIANPCSSIPYFCLPTFGFKHILPLTNDAERFNEIVKNQKISANIDTPEGGFDAIMQAAVCKEKIGWRNDSLHLLVFVSDADSHFGMDSKLAGIVIPNDGLCHLDSKNEYSMSTVLEYPTIGQLIDKLVQNNVLLIFAVTQEQVHLYENYAKLIPGATVGLLQKDSGNILQLIISAYEELRSEVELEVLGDTEGLNLSFTAICNNGTLFQHQKKCSHMKVGDTASFSVTVNIPHCERRSRHIIIKPVGLGDALELLVSPECNCDCQKEVEVNSSKCHHGNGSFQCGVCACHPGHMGPRCECGEDMLSTDSCKEAPDHPSCSGRGDCYCGQCICHLSPYGNIYGPYCQCDNFSCVRHKGLLCGGNGDCDCGECVCRSGWTGEYCNCTTSTDSCVSEDGVLCSGRGDCVCGKCVCTNPGASGPTCERCPTCGDPCNSKRSCIECHLSAAGQAREECVDKCKLAGATISEEEDFSKDGSVSCSLQGENECLITFLITTDNEGKTIIHSINEKDCPKPPNIPMIMLGVSLAILLIGVVLLCIWKLLVSFHDRKEVAKFEAERSKAKWQTGTNPLYRGSTSTFKNVTYKHREKQKVDLSTDC

Each molecule was assayed on plasma proteins (assay: Plasma proteins modulated between baseline and day 28 in responders (CR, VGPR, PR; n = 19), Example 6 (Table 13)). Conditions: plasma protein (OLINK NPX); responders (CR, VGPR, PR; n = 19); itacitinib 200 mg or 300 mg QD with corticosteroids; day 28 vs baseline.
Format: in vivo, human
Method: Due to the limited sample size, steroid-naive (N=10) and steroid-refractory (N=18) patients were combined for further analysis. Broad proteomic analysis of over 1000 proteins was conducted by OLINK Proteomics (Watertown, MA) using a proximity extension assay as described by the manufacturer. Data are presented as normalized protein expression (NPX) in log 2 scale. Statistical differences were evaluated using unpaired and paired t tests, one-way […] (ANOVA), and Pearson Correlation. Significance was conferred when P<0.05.
Longitudinal differences in protein expression were analyzed by evaluating plasma samples from baseline/screening and day 28.

| Molecule | Fold Change, Decreased Expression from Baseline to Day 28 | Fold Change, Increased Expression from Baseline to Day 28 |
| --- | --- | --- |
| B1 | −2.0291 |  |
| B2 | −1.2571 |  |
| B3 |  | 1.195 |
| B4 | −1.3893 |  |
| B5 |  | 1.3677 |
| B6 | −1.3173 |  |
| B7 |  | 1.1639 |
| B8 |  | 1.1254 |
| B9 | −1.5477 |  |
| B10 |  | 1.152 |
